Test results as given in patent US9393309B2, “Self-gelatinizable nucleic acid” (Kyoto University, priority 2011, dated 2016).

What was measured:
[1] = tested on: mouse dendritic cell DC2.4; experiment: Stimulation of dendritic cells by gel; type: cell-based; settings: gel brought into contact with DC2.4
[2] = Release of encapsulated OVA from gel; type: physicochemical; settings: DNA 0.5 mM, OVA 2.5 μg/μl
Protocol: By controlling the nature and salt concentration of protruding ends of Tetrapodna, the change of the releasing rate of an encapsulated compound in a gel was examined. Specifically, Tetrapodna (4-18-18) (SEQ ID NOs.: 2, 4, 5 and 6) including a cohesive protruding end and Tetrapodna (4-18-18) (SEQ ID NOs.: 58, 59, 60 and 61) as a control including a non-cohesive protruding end were used. In an aqueous solution of Tetrapodna which had been prepared such that the DNA concentration was 0.5 mM, the NaCl concentration was adjusted to 5 mM or 150 mM. When the NaCl concentration was increased, egg albumin (OVA, concentration of 2.5 μg/μl) was added as an encapsulated substance to cause gelation, and then the percentage of OVA released from the gel with the passage of time was measured.

[3] = Evaluation of gelation at various DNA concentrations and NaCl concentrations; type: physicochemical; parameters: key: ◯: the mark “∘” is given to cases in which gelation was observed; X: the mark “x” is given to cases of a solution state (sol-state)
Protocol: […] The gel formation and the gel strength were measured by a gel strength analyzer (gel strength meter, Nakayamadenki Co., Ltd, Osaka).
Specifically, by changing the DNA concentrations of an aqueous solution of Tripodona (4-18-18) (X=4) (SEQ ID NOs.: 1, 2 and 3), Tetrapodna (4-18-18) (X=4) (SEQ ID NOs.: 2, 4, 5 and 6), Hexapodna (4-18-18) (X=4) (SEQ ID NOs.: 2, 3, 4, 7, 9 and 10) and Tetrapodna (8-16-16) (X=8) (SEQ ID NOs.: 22, 23, 24 and 25) as shown in the lines of Table 4, and by changing the NaCl concentration as shown in the rows of Table 4, whether or not a gel is formed at various DNA concentrations and NaCl concentrations was evaluated. The results are shown such that the mark “∘” is given to cases in which gelation was observed, and the mark “x” is given to cases of a solution state (sol-state).

[4] = Gel formation in a living body after subcutaneous injection of sol; type: in vivo; settings: total DNA 2 mM, NaCl 5 mM, back of mouse
From the text: The hydrogel produced in Example 1 was able to be prepared in a sol state by appropriately adjusting conditions. Therefore, the hydrogel was able to be administered in a living body by injection. […] Thus, it was confirmed that a gel is formed in a living body only by preparing the hydrogel in accordance with the present invention in a sol state and administering the hydrogel to a living body.

[5] = Formation of hydrogel from nucleic acid units without ligase; type: physicochemical; settings: without DNA ligase
Protocol: A NaCl solution was added to an ODN solution (polypodna) such that the final Na^+ concentration was 5 to 150 mM. The gel formation and the gel strength were measured by a gel strength analyzer (gel strength meter, Nakayamadenki Co., Ltd, Osaka).
A structure to be a hydrogel (a nucleic acid monomer and an estimated nucleic acid unit) in conditions at room temperature, at 5 mM to 150 mM sodium chloride concentration (150 mM is substantially physiological concentration), and not containing a DNA ligase was elucidated. […] For convenience, nucleic acid units estimated to be formed according to the number of nucleic acid monomers capable of constituting the nucleic acid unit were represented by xxxpodna (xxxpod-like structure forming nucleic acid, xxx is substituted by tri (3), tetra (4) and the like, according to the number of nucleic acid monomers capable of constituting the nucleic acid unit). In Table 2 described below, xxxpodna is an estimated nucleic acid unit, and each of xxx-Y-N is a nucleic acid monomer that can be a constituent element of the nucleic acid unit (xxxpodna) which is mentioned above thereof. When the descriptions of Ys are different from each other, different nucleic acid units can be formed. N denotes numbering of nucleic acid monomers constituting each of the estimated nucleic acid units.
Unlike (1-1) described above, gelation can be controlled by using a nucleic acid monomer including cohesive protruding ends which are not attached to themselves (that is, not palindrome sequence).

[6] = Temperature conditions for gel formation; type: physicochemical; settings: NaCl 150 mM
Protocol: Furthermore, we investigated a possibility that temperature conditions are also involved in gelation. Tetrapodna (4-18-18) (SEQ ID NOs.: 2, 4, 5 and 6), Hexapodna (4-18-18) (SEQ ID NOs.: 2, 3, 4, 7, 9 and 10) and Tetrapodna (8-16-16) (SEQ ID NOs.: 22, 23, 24 and 25) were used to examine the temperature conditions for allowing a gel be present or a sol to be present by fixing the NaCl concentration at 150 mM and changing the DNA concentration variously.

splenocytes = experiment: IFN-γ production by splenocytes after immunization with OVA in gel; type: in vivo, mouse; settings: 100 μg OVA + 100 μg DNA, spleen on Day 14, vs only OVA
[7] = Percentage of remaining gels with the passage of time; type: physicochemical; settings: DNA 0.5 mM
Protocol: Gels were formed by adjusting the NaCl concentration at 150 mM in an aqueous solution containing Tetrapodna (12-14-14) (SEQ ID NOs.: 30, 31, 32 and 33) at a DNA concentration of 0.1 mM, 0.25 mM or 0.5 mM, and the percentage of the remaining gels was measured with the passage of time. The results are shown in a graph in the left upper side of FIG. 17.
Gels were formed in conditions at a certain DNA concentration (0.5 mM) and a certain NaCl concentration (150 mM), and the percentage of the remaining gels was measured with the passage of time by using Tetrapodna (respectively, SEQ ID NOs.: 2, 4, 5 and 6, SEQ ID NOs.: 18, 19, 20 and 21, SEQ ID NOs.: 22, 23, 24 and 25, SEQ ID NOs.: 26, 27, 28 and 29, as well as SEQ ID NOs.: 30, 31, 32 and 33) having various lengths of the cohesive protruding end (4, 6, 8, 10 or 12 bases). The results are shown in a graph in the left lower side of FIG. 17. […] When 12 hours had passed, the percentage of the remaining gels became about 50%.
Gels were formed by variously changing the NaCl concentrations (5 mM, 50 mM, 100 mM or 150 mM) of an aqueous solution containing Tetrapodna (12-14-14) (SEQ ID NOs.: 30, 31, 32 and 33) at a DNA concentration of 0.5 mM, and the percentage of the remaining gels was measured with the passage of time. The results are shown in a graph in the right upper side of FIG. 17. […] At a low salt concentration (5 mM), almost all the formed gels became in a sol state when about 6 hours had passed. When the salt concentration was increased to 50 mM, solation tendency was weakened, a change from a gel into a sol occurred moderately (about 40% when 12 hours had passed).
The percentage of the remaining gels was measured with the passage of time in the same manner as in (8-3) except that Tetrapodna (4-18-18) (SEQ ID NOs.: 2, 4, 5 and 6) was used instead of Tetrapodna (12-14-14) (SEQ ID NOs.: 30, 31, 32 and 33). The results are shown in a graph in the right lower side of FIG. 17. […] In (8-3), Tetrapodna (12-14-14) (the length of the cohesive protruding end is 12 bases) was used. In (8-4), Tetrapodna (4-18-18) (the length of the cohesive protruding end is 4 bases) was used.

RAW264.7 cells [8] = experiment: Uptake of cholesterol-modified Tetrapodna by cells; type: cell-based
Protocol: In order to examine applicability of nucleic acid having a modifying group, Tetrapodna using cholesterol-modified DNA was prepared. […] Furthermore, uptake of each Tetrapodna by RAW264.7 cells was measured.

[9] = tested on: atopic dermatitis model mouse; experiment: Application to atopic dermatitis model mouse; type: in vivo; settings: vs Tetrapodna without cholesterol modification
RAW264.7 cells [10] = experiment: Release of TNF-α from RAW264.7 cells (ELISA); type: cell-based, murine; settings: 0.5, 1 or 2 μg/ml, 8 hours
Protocol: In a RPMI1640 medium to which 10% heat inactivated FBS, 0.15% sodium bicarbonate, 100 units/ml penicillin, […] streptomycin and 2 mML-glutamine were added, murine macrophage-like RAW264.7 cells were proliferated in humidified air containing 5% CO2 at 37° C. Subsequently, cells were seeded on a 24-well or 96-well culture plate at a density of 5×10^5 cells/well, and cultured for 24 hours before use.
The RAW264.7 cells were seeded on a 24-well plate at a density of 2.5×10^5 cells/well, and incubated for 24 hours before treatment. Then, ssDNA, dsDNA, or several kinds of polypodnas diluted in 0.5 ml of Opti-MEM were added to the cells at a final concentration of 0.5, 1 or 2 μg/ml. The cells were incubated for 8 hours, the supernatant was recovered and stored at −70° C. before use. The concentrations of TNF-α and IL-6 in the supernatant were measured by Enzyme-Linked Immunosorbent Assay (ELISA) using an OptEIA™ set (Pharmingen, San Diego, Calif., USA).
The same experiment as in Example 22 was carried out except that each poolypodna preparation was prepared in the same manner as in Example 1 by using the sequences in Table 1. However, the added DNA was equal amount in each case.

[11] = Melting temperature (Tm) from melting curve, absorbance at 260 nm; type: physicochemical; settings: sodium concentration of 5 mM
Protocol: Each DNA preparation was prepared in the same manner as in Example 1 by using the sequences in Table 1. The absorbance of polypodna or other DNA preparations at 260 nm was measured by using a Shimadzu UV-1600 PC spectrometer (Kyoto, Japan) equipped with a TMSPC-8 temperature controller 18. The melting temperature (Tm) was obtained from the melting curve at the sodium concentration of 5 mM in each preparation.

B1: Tetrapodna(4-18-18): four ODNs, SEQ ID NOs.: 2, 4, 5 and 6, 4-base cohesive protruding end, contains CpG motif (nucleic acid)
DNA 1: ACGTTCGACAGCGTCAACGTGAAACGTGAAGCGTCTGCGA
DNA 2: ACGTTCGCTGACGTTGCAGACATCACGTTGACGCTGTCGA
DNA 3: ACGTTCGCAGACGCTTCACGTTGCAGACAGACGTTGACGA
DNA 4: ACGTTCGTCAACGTCTGTCTGCTGTCTGCAACGTCAGCGA
modifications: unmodified DNA
[1]
  immunological stimulation of dendritic cell: significantly immunologically stimulated a mouse dendritic cell
[2]; NaCl 5 mM
  release of OVA from the gel: all OVA was released for a short time
[2]; NaCl 150 mM, 24 hours
  percentage of OVA released: about 60%
[3]; Na+ 2 mM, DNA 0.8 mM
  gelation: ◯
[3]; Na+ 20 mM, DNA 0.6 mM
  gelation: X
[3]; Na+ 20 mM, DNA 0.7 mM
  gelation: X
[3]; Na+ 50 mM, DNA 0.6 mM
  gelation: ◯
[3]; Na+ 50 mM, DNA 0.7 mM
  gelation: ◯
[3]; Na+ 100 mM, DNA 0.5 mM
  gelation: X
[3]; Na+ 150 mM, DNA 0.4 mM
  gelation: X
[3]; Na+ 150 mM, DNA 0.5 mM
  gelation: ◯
[4]
  gel formation in a living body: gelation occurred in a living body after administration
[5]
  gel formation: gels can be prepared
[6]; DNA concentration 0.4-0.5 mM
  temperature at which gel is present: gel at 45 °C
  temperature at which sol is present: sol at 55 °C
[6]; DNA concentration 0.6-0.8 mM
  temperature at which gel is present: gel at 55 °C
  temperature at which sol is present: sol at 65 °C
splenocytes
  production of IFN-γ by splenocytes stimulated with OVA: remarkable increase in production amount of IFN-γ
[7]; NaCl 150 mM
  percentage of the remaining gels with the passage of time: a gel became a sol with the passage of time
[7]; NaCl 150 mM, 12 hours
  percentage of the remaining gels: about 50%
[7]; NaCl 5, 50, 100 or 150 mM
  percentage of the remaining gels, dependence on salt concentration: as the salt concentration is higher, it tends to be present not in a sol but in a gel

B2: Chol-CpG DNA: Tetrapodna (SEQ ID NOs.: 2, 4, 5 and 6) which contains a cholesterol-modified nucleic acid monomer and a CpG motif (conjugate)
DNA 1: ACGTTCGACAGCGTCAACGTGAAACGTGAAGCGTCTGCGA
DNA 2: ACGTTCGCTGACGTTGCAGACATCACGTTGACGCTGTCGA
DNA 3: ACGTTCGCAGACGCTTCACGTTGCAGACAGACGTTGACGA
DNA 4: ACGTTCGTCAACGTCTGTCTGCTGTCTGCAACGTCAGCGA
modifications: DNA, phosphodiester; one monomer cholesterol-modified, strand and position not given here
RAW264.7 cells [8]
  uptake by RAW264.7 cells: incorporated into RAW264.7 cells better than Tetrapodna as a control which does not have cholesterol modification
[9]; applied to skin
  tissue transferability: increased
[9]
  skin inflammation: better suppressed

B3: dsDNA36: double strand of dsDNA36-1 and dsDNA36-2, SEQ ID Nos. 108 and 109 (nucleic acid)
chain 1: TCGCTGACGTTGCAGACATCACGTTGACGCTGTCGA
chain 2: TCGACAGCGTCAACGTGATGTCTGCAACGTCAGCGA
modifications: unmodified DNA
RAW264.7 cells [10]
  TNF-α release: the TNF-α release hardly occurred
[11]
  Tm: 66.5 °C
